Test results taken from patent US20210316003A1 (Immunomedics, Inc., priority 2020, published 2021).
Read-outs that look alike come from different tables or passages of the source.

Test system: patients with metastatic urothelial cancer (mUC)
Description: Endpoints included safety, investigator-evaluated objective response rate (ORR per RECIST 1.1), clinical benefit rate, duration of response (DOR), progression-free survival (PFS), and overall survival (OS). Sequencing analysis of differentially mutated and expressed genes and pathways was performed in subsets of tumors from responders and non-responders.
Hematopoietic growth factors or blood transfusions were allowed at the investigator's discretion, but not prior to the first dose. Other supportive care (antiemetics, anti-diarrheal medications, or bone-stabilizing agents) were allowed as medically needed.
Additional secondary objectives included assessment of pharmacokinetics and immunogenicity, which were previously reported by Ocean and colleagues (Ocean et al., 2017, Cancer 123:3843-54). Safety evaluations included adverse events (AEs), serious adverse events (SAEs), laboratory safety evaluations, vital signs, physical examinations, and 12-lead electrocardiograms (ECG; performed at baseline, after completion of the infusion on day 1 of every even-numbered treatment cycle, at the end of treatment, and at the end of the study). AEs were graded according to the National Cancer Institute Common Terminology Criteria for Adverse Events, version 4.0.
The data cut-off date for this analysis was Sep. 1, 2018. ORR and CBR were calculated with 95% confidence intervals estimated by the Clopper-Pearson method (Clopper & Pearson, 1934, Biometrika 26:404-13). PFS, OS, and time-to-event endpoints were analyzed by the Kaplan-Meier method, with medians and corresponding 95% confidence intervals determined by the Brookmeyer and Crowley method with log-log transformation. Descriptive statistics were used to characterize AEs. Fischer's exact test was applied to a matrix of pathway-associated gene counts of mutated and wild type phenotypes between responders and non-responders to identify pathways enriched in either of the two response groups. P-values for single sample GSEA (ssGSEA) enrichment score differences between the responder and non-responder patient groups were obtained from the Mann-Whitney statistical test.

[1] = mUC, N = 45, regardless of causality
[2] = mUC, N = 45, listed as Sacituzumab Govitecan

sacituzumab govitecan
Maximum tolerated dose (days 1 and 8 every 21 days, intravenous): 10 mg/kg
Patients with dose reductions (mUC, 18 of 45): 40%
AEs leading to death or treatment-related deaths (mUC, N = 45): no treatment-related deaths were reported
Anemia, grade ≥3 (mUC, N = 45): 13%
Diarrhea, grade ≥3 (mUC, N = 45): 9%
Discontinued for treatment-related AE, % (mUC, N = 45): (11.1) %
Fatigue, grade ≥3 (mUC, N = 45): 9%
Febrile neutropenia, grade ≥3 (mUC, N = 45): 7%
Hypophosphatemia, grade ≥3 (mUC, N = 45): 11%
Neutropenia, grade ≥3 (mUC, N = 45): 38%
Peripheral neuropathy or cardiovascular AEs of grade 3 or higher (mUC, N = 45): no cases
Alopecia, Any Grade, % of patients [1]: (40.0) %
Alopecia, Any Grade, No. of patients [1]: 18
Alopecia, Grade 3, No. of patients [1]: 0
Alopecia, Grade 4, No. of patients [1]: 0
Anemia, Any Grade, % of patients [1]: (33.3) %
Anemia, Any Grade, No. of patients [1]: 15
Anemia, Grade 3, % of patients [1]: (13.3) %
Anemia, Grade 3, No. of patients [1]: 6
Anemia, Grade 4, No. of patients [1]: 0
Any adverse event, Any Grade, % of patients [1]: (100) %
Any adverse event, Any Grade, No. of patients [1]: 45
Any adverse event, Grade 3, % of patients [1]: (55.6) %
Any adverse event, Grade 3, No. of patients [1]: 25
Any adverse event, Grade 4, % of patients [1]: 17.8%
Any adverse event, Grade 4, No. of patients [1]: 8
Back pain, Any Grade, % of patients [1]: (22.2) %
Back pain, Any Grade, No. of patients [1]: 10
Back pain, Grade 3, No. of patients [1]: 0
Back pain, Grade 4, No. of patients [1]: 0
Constipation, Any Grade, % of patients [1]: (44.4) %
Constipation, Any Grade, No. of patients [1]: 20
Constipation, Grade 3, No. of patients [1]: 0
Constipation, Grade 4, No. of patients [1]: 0
Cough, Any Grade, % of patients [1]: (31.1) %
Cough, Any Grade, No. of patients [1]: 14
Cough, Grade 3, No. of patients [1]: 0
Cough, Grade 4, No. of patients [1]: 0
Decreased appetite, Any Grade, % of patients [1]: (37.8) %
Decreased appetite, Any Grade, No. of patients [1]: 17
Decreased appetite, Grade 3, No. of patients [1]: 0
Decreased appetite, Grade 4, No. of patients [1]: 0
Diarrhea, Any Grade, % of patients [1]: (68.9) %
Diarrhea, Any Grade, No. of patients [1]: 31
Diarrhea, Grade 3, No. of patients [1]: 4
Diarrhea, Grade 4, No. of patients [1]: 0
Dizziness, Any Grade, % of patients [1]: (22.2) %
Dizziness, Any Grade, No. of patients [1]: 10
Dizziness, Grade 3, No. of patients [1]: 0
Dizziness, Grade 4, No. of patients [1]: 0
Fatigue, Any Grade, % of patients [1]: (57.8) %
Fatigue, Any Grade, No. of patients [1]: 26
Fatigue, Grade 3, % of patients [1]: (8.9) %
Fatigue, Grade 3, No. of patients [1]: 4
Fatigue, Grade 4, No. of patients [1]: 0
Febrile neutropenia, Any Grade, % of patients [1]: (6.7) %
Febrile neutropenia, Any Grade, No. of patients [1]: 3
Febrile neutropenia, Grade 3, % of patients [1]: (6.7) %
Febrile neutropenia, Grade 3, No. of patients [1]: 3
Febrile neutropenia, Grade 4, No. of patients [1]: 0
Hypophosphatemia, Any Grade, % of patients [1]: (20.0) %
Hypophosphatemia, Any Grade, No. of patients [1]: 9
Hypophosphatemia, Grade 3, % of patients [1]: (11.1) %
Hypophosphatemia, Grade 3, No. of patients [1]: 5
Hypophosphatemia, Grade 4, No. of patients [1]: 0
Nausea, Any Grade, % of patients [1]: (66.7) %
Nausea, Any Grade, No. of patients [1]: 30
Nausea, Grade 3, % of patients [1]: (2.2) %
Nausea, Grade 3, No. of patients [1]: 1
Nausea, Grade 4, No. of patients [1]: 0
Neutropenia (incl. neutrophil count decreased), Any Grade, % of patients [1]: (51.1) %
Neutropenia (incl. neutrophil count decreased), Any Grade, No. of patients [1]: 23
Neutropenia, Grade 3, % of patients [1]: (22.2) %
Neutropenia, Grade 3, No. of patients [1]: 10
Neutropenia, Grade 4, % of patients [1]: 15.6%
Neutropenia, Grade 4, No. of patients [1]: 7
Pyrexia, Any Grade, % of patients [1]: (24.4) %
Pyrexia, Any Grade, No. of patients [1]: 11
Pyrexia, Grade 3, No. of patients [1]: 0
Pyrexia, Grade 4, No. of patients [1]: 0
Rash, Any Grade, % of patients [1]: (22.2) %
Rash, Any Grade, No. of patients [1]: 10
Rash, Grade 3, No. of patients [1]: 0
Rash, Grade 4, No. of patients [1]: 0
Vomiting, Any Grade, % of patients [1]: (31.1) %
Vomiting, Any Grade, No. of patients [1]: 14
Vomiting, Grade 3, % of patients [1]: (2.2) %
Vomiting, Grade 3, No. of patients [1]: 1
Vomiting, Grade 4, No. of patients [1]: 0
AEs leading to death or treatment-related deaths [2]: No AEs leading to death or treatment-related deaths were reported
Peripheral neuropathy or cardiovascular AEs of grade 3 or higher [2]: No cases
